Two substances from article PMC4224615 can be followed below.

Experiment [1] has as its target BG505 SOSIP.664 trimer (HIV-1 BG505). Nature of the experiment: negative-stain electron microscopy.
The target of experiment [2] is BG505 SOSIP.664 trimer, captured by anti-histidine (SPR of Fig. 2d) (HIV-1 BG505). Put plainly: SPR.

With 35O22 Fab, in experiment [1], the stoichiometry N (Fabs per trimer) came out at 3.
Consider 35O22 antibody (full-length IgG), for which, in experiment [2], the Kd turned out to be 5.6 nM.
